Measured values reported in publication PMC12045370.

Key:
[1] = target: microtubules grown from purified bovine brain tubulin (bovine) (UniProt Q6B856); test: optical trap rupture force assay; benzonase-treated kinetochores on anti-penta-His beads; dynamic microtubules grown from coverslip-anchored GMPCPP seeds; BRB80, 1 mM GTP, 23°C; force ramp 0.25 pN/s until detachment
[2] = target: microtubules grown from purified bovine brain tubulin (bovine) (UniProt Q6B856); test: optical trap rupture force assay; untreated kinetochores on anti-penta-His beads; dynamic microtubules grown from coverslip-anchored GMPCPP seeds; BRB80, 1 mM GTP, 23°C; force ramp 0.25 pN/s until detachment

Sequence of UniProt Q6B856 (Q6B856 whole entry, looked up): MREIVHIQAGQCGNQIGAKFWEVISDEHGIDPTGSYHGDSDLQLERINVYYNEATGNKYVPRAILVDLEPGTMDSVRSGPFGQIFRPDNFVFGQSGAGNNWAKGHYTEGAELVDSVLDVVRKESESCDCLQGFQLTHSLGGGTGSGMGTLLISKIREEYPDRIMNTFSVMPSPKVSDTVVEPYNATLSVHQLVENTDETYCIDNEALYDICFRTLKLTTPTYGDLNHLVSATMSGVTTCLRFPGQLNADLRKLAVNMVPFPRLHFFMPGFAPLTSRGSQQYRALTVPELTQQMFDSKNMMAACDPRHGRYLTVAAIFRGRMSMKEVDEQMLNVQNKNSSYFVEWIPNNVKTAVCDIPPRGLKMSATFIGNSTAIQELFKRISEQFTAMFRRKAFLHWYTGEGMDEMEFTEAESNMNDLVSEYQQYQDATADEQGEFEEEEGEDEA

Row | median rupture force [1] | median rupture force [2] | Substance
1 | 6.4 pN | 7.5 pN | K. marxianus kinetochore particles purified via Dsn1-6His-3M3DK (from UniProt A0ABX6F0Z3 1-547) (complex)
2 | – | 7.2 | S. cerevisiae kinetochore particles purified via Dsn1-6His-3M3DK (from UniProt P40568 1-576) (complex)
